From patent publication US20230265151A1, “GIP/GLP1 CO-AGONIST COMPOUNDS” (priority 2020, published 2023)
*1 amine or outer side, *2 acyl side, *3 side chain or, on linkers, in order; H or OH if unused. Where no end group is shown, it is not given here. Side-chain parts run from the residue outwards. [ ]: non-standard residue; d: D form. The star is where a group is joined. αMePhe(2-F) = C[C@](N)(Cc1ccccc1F)C(=O)O; γGlu = O=C(O)[C@H](CCC(=O)[*:2])N[*:1]; C14 diacid = O=C(O)CCCCCCCCCCCCC(=O)*; εLys = N[C@@H](CCCCN[*:1])C(=O)[*:2]; αMeY = C[C@](N)(Cc1ccc(O)cc1)C(=O)O; αMeF = C[C@](N)(Cc1ccccc1)C(=O)O; αMeL = CC(C)C[C@](C)(N)C(=O)O; Orn = NCCC[C@H](N)C(=O)O; AEEA = NCCOCCOCC(=O)O; Aib = CC(C)(N)C(=O)O

T1: human glucose-dependent insulinotropic polypeptide (GIP) receptor (human, UniProt P48546 22-466)
T1 sequence (looked up): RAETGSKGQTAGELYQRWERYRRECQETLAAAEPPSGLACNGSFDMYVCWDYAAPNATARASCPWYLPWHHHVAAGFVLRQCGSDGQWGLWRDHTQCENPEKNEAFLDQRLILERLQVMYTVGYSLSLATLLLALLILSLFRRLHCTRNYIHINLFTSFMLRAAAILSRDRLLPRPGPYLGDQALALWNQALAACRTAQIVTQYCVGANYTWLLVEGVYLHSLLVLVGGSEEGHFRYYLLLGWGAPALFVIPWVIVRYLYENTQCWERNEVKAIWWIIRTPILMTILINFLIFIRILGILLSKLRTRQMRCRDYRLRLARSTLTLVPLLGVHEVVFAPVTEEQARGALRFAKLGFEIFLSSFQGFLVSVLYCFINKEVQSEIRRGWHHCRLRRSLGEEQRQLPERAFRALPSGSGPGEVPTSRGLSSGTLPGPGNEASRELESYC

T2: human GIP receptor (human, UniProt P48546 22-466)
T2 sequence (looked up): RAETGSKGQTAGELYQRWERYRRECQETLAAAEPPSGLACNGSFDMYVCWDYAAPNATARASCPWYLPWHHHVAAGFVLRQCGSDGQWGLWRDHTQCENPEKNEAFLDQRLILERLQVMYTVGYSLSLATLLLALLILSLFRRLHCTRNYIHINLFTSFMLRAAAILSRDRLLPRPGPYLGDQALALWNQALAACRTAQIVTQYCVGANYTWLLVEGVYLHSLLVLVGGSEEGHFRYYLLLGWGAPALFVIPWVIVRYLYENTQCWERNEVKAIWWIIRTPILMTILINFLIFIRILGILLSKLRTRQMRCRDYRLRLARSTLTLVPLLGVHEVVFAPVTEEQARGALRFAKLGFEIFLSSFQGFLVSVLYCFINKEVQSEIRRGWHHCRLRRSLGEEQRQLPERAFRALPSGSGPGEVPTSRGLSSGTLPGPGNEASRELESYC

B1: Example 197 (peptide)
peptide: YXEGTXTSDXSIXLDXIAQXEFIKXLIEGGKSSGAPPPS
modifications: Aib2, αMeF(2F)6, 4Pal10, αMeL13, Orn16, Aib20, K24(Z), αMeY25, K31(Z), C-terminal NH2; Z = (εK)-(γ-Glu)-CO-(CH2)12-CO2H
B2: Y-Aib-EGT-αMeF-TSD-αMeF-SI-αMeL-LD-Orn-K((2-[2-(2-Amino-ethoxy)-ethoxy]-acetyl)2-(γ-Glu)-CO-(CH2)12-CO2H)AQ-Aib-EFI-(D-Glu)-αMeY-LIEGGK((2-[2-(2-Amino-ethoxy)-e … (peptide)
peptide: YXEGTXTSDXSIXLDXKAQXEFIXXLIEGGKSSGAPPPS
modifications: Aib2, αMeF6, αMeF10, αMeL13, Orn16, Aib20, D-Glu24, αMeY25; acylated K17, K31 (groups as in name); C-terminal amide
B3: Y-Aib-EGT-αMeF(2F)-TSD-4Pal-SK((2-[2-(2-Amino-ethoxy)-ethoxy]-acetyl)2-(γ-Glu)-CO-(CH2)12-CO2H)-αMeL-LD-Orn-K((2-[2-(2-Amino-ethoxy)-ethoxy]-acetyl)2-(γ-Glu)-CO … (peptide)
peptide: YXEGTXTSDXSKXLDXKAQXEFIXXLIEGGPSSGAPPPS
modifications: Aib2, αMeF(2F)6, 4Pal10, αMeL13, Orn16, Aib20, D-Glu24, αMeY25; acylated K12, K17 (groups as in name); C-terminal amide
B4: Example 192 (peptide)
peptide: YXEGTXTSDXSIXLDXIAQXEFIKXLIKGGPSSGAPPPS
modifications: Aib2, αMeF(2F)6, 4Pal10, αMeL13, Orn16, Aib20, K24(Z), αMeY25, K28(Z), C-terminal NH2; Z = AEEA2-CO-(CH2)12-CO2H
B5: Y-Aib-EGT-αMeF(2F)-TSDV-Aib-I-αMeL-LD-Orn-K((2-[2-(2-Amino-ethoxy)-ethoxy]-acetyl)2-(γ-Glu)-CO-(CH2)12-CO2H)AQ-Aib-EFI-(D-Glu)-αMeY-LIEGGK((2-[2-(2-Amino-ethoxy … (peptide)
peptide: Y[Aib]EGT[αMePhe(2-F)]TSDV[Aib]I[αMeL]LD[Orn]K([AEEA-AEEA-γGlu-C14 diacid])AQ[Aib]EFI[dE][αMeY]LIEGGK([AEEA-AEEA-γGlu-C14 diacid])SSGAPPPS-NH2
modifications: N-terminus assumed
SMILES: CC[C@H](C)[C@H](NC(=O)[C@H](CC(C)C)NC(=O)[C@](C)(Cc1ccc(O)cc1)NC(=O)[C@@H](CCC(=O)O)NC(=O)[C@@H](NC(=O)[C@H](Cc1ccccc1)NC(=O)[C@H](CCC(=O)O)NC(=O)C(C)(C)NC(=O)[C@H](CCC(N)=O)NC(=O)[C@H](C)NC(=O)[C@H](CCCCNC(=O)COCCOCCNC(=O)COCCOCCNC(=O)CC[C@H](NC(=O)CCCCCCCCCCCCC(=O)O)C(=O)O)NC(=O)[C@H](CCCN)NC(=O)[C@H](CC(=O)O)NC(=O)[C@H](CC(C)C)NC(=O)[C@](C)(CC(C)C)NC(=O)[C@@H](NC(=O)C(C)(C)NC(=O)[C@@H](NC(=O)[C@H](CC(=O)O)NC(=O)[C@H](CO)NC(=O)[C@@H](NC(=O)[C@](C)(Cc1ccccc1F)NC(=O)[C@@H](NC(=O)CNC(=O)[C@H](CCC(=O)O)NC(=O)C(C)(C)NC(=O)[C@@H](N)Cc1ccc(O)cc1)[C@@H](C)O)[C@@H](C)O)C(C)C)[C@@H](C)CC)[C@@H](C)CC)C(=O)N[C@@H](CCC(=O)O)C(=O)NCC(=O)NCC(=O)N[C@@H](CCCCNC(=O)COCCOCCNC(=O)COCCOCCNC(=O)CC[C@H](NC(=O)CCCCCCCCCCCCC(=O)O)C(=O)O)C(=O)N[C@@H](CO)C(=O)N[C@@H](CO)C(=O)NCC(=O)N[C@@H](C)C(=O)N1CCC[C@H]1C(=O)N1CCC[C@H]1C(=O)N1CCC[C@H]1C(=O)N[C@@H](CO)C(N)=O
B6: Example 194 (peptide)
peptide: YXEGTXTSDXSIXLDXIAQXEFIKXLIEGGPSSGAPPPSK
modifications: Aib2, αMeF(2F)6, 4Pal10, αMeL13, Orn16, Aib20, K24(Z), αMeY25, K40(Z), C-terminal NH2; Z = AEEA2-CO-(CH2)12-CO2H
B7: Example 196 (peptide)
peptide: YXEGTXTSDXSIXLDXIAQXKFIXXLIEGGPSSGAPPPSK
modifications: Aib2, αMeF(2F)6, 4Pal10, αMeL13, Orn16, Aib20, K21(Z), D-Glu24, αMeY25, K40(Z), C-terminal NH2; Z = AEEA2-CO-(CH2)12-CO2H
B8: Y-Aib-EGT-αMeF(2F)-TSDV-Aib-I-αMeL-LD-Orn-K((εK)-(γ-Glu)-CO-(CH2)12-CO2H)AQ-Aib-EFI-(D-Glu)-αMeY-LIEGGK((εK)-(γ-Glu)-CO-(CH2)12-CO2H)SSGAPPPS-NH2 (peptide)
peptide: Y[Aib]EGT[αMePhe(2-F)]TSDV[Aib]I[αMeL]LD[Orn]K([εLys-γGlu-C14 diacid])AQ[Aib]EFI[dE][αMeY]LIEGGK([εLys-γGlu-C14 diacid])SSGAPPPS-NH2
modifications: N-terminus assumed
SMILES: CC[C@H](C)[C@H](NC(=O)[C@H](CC(C)C)NC(=O)[C@](C)(Cc1ccc(O)cc1)NC(=O)[C@@H](CCC(=O)O)NC(=O)[C@@H](NC(=O)[C@H](Cc1ccccc1)NC(=O)[C@H](CCC(=O)O)NC(=O)C(C)(C)NC(=O)[C@H](CCC(N)=O)NC(=O)[C@H](C)NC(=O)[C@H](CCCCNC(=O)[C@@H](N)CCCCNC(=O)CC[C@H](NC(=O)CCCCCCCCCCCCC(=O)O)C(=O)O)NC(=O)[C@H](CCCN)NC(=O)[C@H](CC(=O)O)NC(=O)[C@H](CC(C)C)NC(=O)[C@](C)(CC(C)C)NC(=O)[C@@H](NC(=O)C(C)(C)NC(=O)[C@@H](NC(=O)[C@H](CC(=O)O)NC(=O)[C@H](CO)NC(=O)[C@@H](NC(=O)[C@](C)(Cc1ccccc1F)NC(=O)[C@@H](NC(=O)CNC(=O)[C@H](CCC(=O)O)NC(=O)C(C)(C)NC(=O)[C@@H](N)Cc1ccc(O)cc1)[C@@H](C)O)[C@@H](C)O)C(C)C)[C@@H](C)CC)[C@@H](C)CC)C(=O)N[C@@H](CCC(=O)O)C(=O)NCC(=O)NCC(=O)N[C@@H](CCCCNC(=O)[C@@H](N)CCCCNC(=O)CC[C@H](NC(=O)CCCCCCCCCCCCC(=O)O)C(=O)O)C(=O)N[C@@H](CO)C(=O)N[C@@H](CO)C(=O)NCC(=O)N[C@@H](C)C(=O)N1CCC[C@H]1C(=O)N1CCC[C@H]1C(=O)N1CCC[C@H]1C(=O)N[C@@H](CO)C(N)=O

Experiments:
Test in all cases: cell-based or functional assay
human glucagon receptor [1] = biological target: human glucagon receptor (human, UniProt P47871 26-477)
[2] = biological target: human glucagon-like peptide-1 (GLP-1) receptor (human, UniProt P43220 24-463)
[3] = biological target: T1, human glucose-dependent insulinotropic …
human GLP-1 receptor = human GLP-1 receptor (human, UniProt P43220 24-463)
human GIP receptor = biological target: T2, human GIP receptor
human glucagon receptor [4] = biological target: human glucagon receptor (human, UniProt P47871 26-477); remark: listed apart in the source

Binder | cAMP EC50 (human glucagon receptor [1]) [nM] | cAMP EC50 [2] [nM] | cAMP EC50 [3] [nM] | cAMP Emax [3] [%] | cAMP EC50 (1.0% HSA) (human GLP-1 receptor) [nM] | cAMP EC50 (1.0% HSA) (human GIP receptor) [nM] | cAMP Emax (1.0% HSA) (human GIP receptor) [%] | cAMP EC50 (1.0% HSA) (human glucagon receptor [4]) [nM] | cAMP Emax [2] [%]
B1 | > 9950 | 0.336 | 0.0338 | 102 | – | – | – | – | –
B2 | – | – | – | – | 387 | 13.7 | 72.5 | > 9950 | –
B3 | – | – | – | – | 60.4 | 2.08 | 93 | > 9950 | –
B4 | > 9950 | 0.518 | 0.0375 | – | – | – | – | – | –
B5 | – | – | – | – | 20.4 | 7.05 | – | – | –
B6 | > 9950 | 0.317 | 0.0233 | 93.1 | – | – | – | – | 103
B7 | > 9950 | 0.356 | 0.0232 | – | – | – | – | – | –
Y[Aib]EGT[αMeF]TSDV[Aib]I[αMeL]LD[Orn]K([AEEA-AEEA-γGlu-C14 diacid])AQ[Aib]EFIK([AEEA-AEEA-γGlu-C14 diacid])[αMeY]LIEGGKSSGAPPPS-NH2 (not fully specified) [Example 182] | > 9950 | 0.185 | 0.368 | 89 | – | – | – | – | 96.9
B8 | – | – | – | – | 26.6 | 3.62 | – | – | –
